Test results taken from the supplement of paper PMC9732359.
± gives the uncertainty stated by the source.

assay: protein stability index of a GFP-peptide fusion (yeast GPS) (PSI 1-4); higher = more stable; sorted into four equal gates, so the index is relative within each strain; settings: pdr5∆
Outline: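 Peptides tiling yeast proteins in 17-residue segments were fused downstream of GFP, with Cherry expressed from the same plasmid. As a pooled library in yeast, mid-log cultures grown in leucine-free medium were sorted into four equal gates by GFP/Cherry fluorescence ratio. Gate plasmids were PCR-amplified and Illumina-sequenced, and barcodes linked reads to strains. Each peptide received a protein stability index equal to the sum of each gate's read frequency times its gate number.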

Sequence | protein stability index
ILDCVVTNSMRQTLAPY [YJR042W/NUP85] | 2.84 ± 0.052
ILEFITAAQVANVELTP [RPC34] | 2.13 ± 0.08

same assay, conditions: san1∆

Sequence | protein stability index
HVRKVKLLKQPKFDVGA [RPS1A] | 2.28 ± 0.073
HWSVSFQAHEITSFLLS [NAS6] | 1.76 ± 0.08
HYKQQIAVLIELLEERF [YCS4] | 2.48 ± 0.1
HYKVPTDTSTTATAATN [MED6] | 2.29 ± 0.067
IADLASLEQLLGMMYEQ [YCS4] | 2.6 ± 0.074
IAEIKKTPLLKQYLSAS [RPL6A] | 2.31 ± 0.065
IAFLVGLVNPKTVQSMT [SWI3] | 2.11 ± 0.07
IANDNVITPHFITNVQS [SWI1] | 2.41 ± 0.092
IANFSRAGKYELVKSYS [YJR042W/NUP85] | 1.28 ± 0.13
IASKMSLAPEADLDSLI [RPT3] | 2.1 ± 0.12
ICSCVNRGVKLEIVYGY [RPP1] | 2.43 ± 0.08
IDALGTEFSKNDLEVGV [SCL1] | 2.49 ± 0.11
IDDKGVLMERKDERGEG [ITC1] | 3 ± 0.15
IDEVDSIATKRFDAQTG [RPT3] | 2.93 ± 0.075
IDGPKAGVPRQAINLGQ [RPL14A] | 2.69 ± 0.11
IDGSTSHEERIEAIDEY [ISW2] | 3.06 ± 0.091
IDMESDVEDDDKETQLK [POP7] | 1.62 ± 0.088
IDNGTGRTGNGNMGITT [MED6] | 3.25 ± 0.067
IDNLESYAGISTDKLVQ [SIR2] | 2.94 ± 0.068
IDSPELLSLISTTAALQ [RPN7] | 2.32 ± 0.041
IDTDLFGAPNNPNSTAI [YGL172W/NUP49] | 2.91 ± 0.053
IDTLLYLMTYPQQPMVK [RET1] | 2.33 ± 0.13
IDYHKTAKETKMLMNLH [RPN11] | 2.84 ± 0.057
IEATDLGNIASSFYINH [BRR2] | 3.12 ± 0.078
IEDLWQFLYEKHYKNIP [RPC82] | 1.62 ± 0.19

Sequence | protein stability index
IEIDYTVRVDKASTYGE [SNF12] | 1.53 ± 0.16
IELDQVLNMLYWVPDWD [RPO21] | 2.17 ± 0.11
IELLSLDDDSIVNHEQD [SRB4] | 3.4 ± 0.083
IELVVTEKEEAVAKAAE [RPL17A] | 3.27 ± 0.04
IEQGIPKHSYLSGNPLT [SIR4] | 3.13 ± 0.17
IFEAISLSDELNLDEIV [YJL039C/NUP192] | 2.72 ± 0.042
IFEKELMYQIKKECALL [SRB4] | 2.61 ± 0.26
IFISSDHEFVLISLIMT [YMR129W/POM152] | 2.01 ± 0.16
IFKDKEKLVSDLRLIKV [SMC1] | 3.31 ± 0.21
IFNDILAHVDQIVDIRN [YJL039C/NUP192] | 2.97 ± 0.082
IFNFDQLVEITEQIKMR [SRB8] | 1.66 ± 0.14
IFSLLTGYPDEPPAGVA [CYT1] | 2.4 ± 0.13
IGIDPPRGVLLYGPPGT [RPT3] | 2.89 ± 0.081
IGIMASDGIVLAAERKV [PRE9] | 3.37 ± 0.15
IGQLMAFDKHMNLVLNE [SMB1] | 2.72 ± 0.16
IGSGAMSPLECRNILGV [RPP1] | 2.19 ± 0.064
IGTGEHIHDLEKFSPKS [SRP54] | 2.9 ± 0.053
IGTHHAGLTRSDRSLSE [BRR2] | 1.47 ± 0.14
IGVRCYEAYPNTSLPPS [FAS1] | 2.59 ± 0.034
IHIDALELAGMDALYEK [SIR3] | 2.71 ± 0.07
IHKQIVIEMKRCFENLQ [UBP6] | 3.1 ± 0.064
IHPIPSVTVSQGNYVTE [YMR129W/POM152] | 2.58 ± 0.073
IHQILLPTNPTLDKPNA [CSE2] | 2.37 ± 0.044
IIDGPKALILAPTRELV [PRP28] | 1.89 ± 0.1
IIDVGTHHTDIIPIVDY [ARP9] | 2.5 ± 0.056

Sequence | protein stability index
IIHVLTTMFENTGWSCS [RGR1] | 2.7 ± 0.077
IIKANQLILSDVDPEFY [RET1] | 1.6 ± 0.11
IIKERALLSKVKWVHMI [SNF2] | 1.34 ± 0.088
IILHFANFGEILEDFRV [YMR153W/NUP53] | 2.85 ± 0.062
IIPIVDYAQLDHLVSSI [ARP9] | 2.34 ± 0.053
IIQGRKNFDMLNSMEKD [PCI8] | 2.95 ± 0.046
IIQNAQRDAVTLFCCLL [RPO21] | 2.53 ± 0.051
IIRLLPINLENNDGSYG [SRB8] | 1.21 ± 0.077
IIVAGYDDKNKGEVYTI [PRE3] | 3.42 ± 0.089
IIVQYLTKFRQKLMQLV [RGR1] | 2.56 ± 0.083
IKEDIKKQPSILVGGTL [SNF2] | 2.92 ± 0.12
IKEELTKLIISGQLNFE [PCI8] | 2.54 ± 0.26
IKFGGLIIQKIPSLQNN [ECM29] | 1.5 ± 0.064
IKFKKCDGDTVWDKFAV [SSN2] | 2.87 ± 0.046
IKFLLTFIDKERHQKQL [YCS4] | 1.58 ± 0.27
IKLNGSTLLCTDLESKS [SNU114] | 2.54 ± 0.056
IKMQRQFSQLNDPNAAV [MED6] | 3.09 ± 0.06
IKNVIVSNRVAAPARAG [RPP0] | 3 ± 0.14
IKQDIPIVIIFRALGII [RPB2] | 1.48 ± 0.077
IKQTSDESTIKRIKPNT [ECM29] | 2.85 ± 0.048
IKTFFTQKDSARVSPRN [YAR002W/NUP60] | 3.18 ± 0.086
IKTKQMSLKKCQEEVST [SMC2] | 3.03 ± 0.088
ILATNSLRILAKLSERS [YJL039C/NUP192] | 2.49 ± 0.085
ILDCVVTNSMRQTLAPY [YJR042W/NUP85] | 2.53 ± 0.05
ILEFITAAQVANVELTP [RPC34] | 2.27 ± 0.095

same assay, conditions: ubr1∆

Sequence | protein stability index
HVRKVKLLKQPKFDVGA [RPS1A] | 2.2 ± 0.067
HVSHEAMREVNDEKRVK [YIL149C/MLP2] | 3.03 ± 0.12
HWSVSFQAHEITSFLLS [NAS6] | 2.02 ± 0.04
HYKQQIAVLIELLEERF [YCS4] | 2.34 ± 0.072
HYKVPTDTSTTATAATN [MED6] | 2.61 ± 0.044
IADLASLEQLLGMMYEQ [YCS4] | 2.65 ± 0.031
IAEIKKTPLLKQYLSAS [RPL6A] | 2.25 ± 0.047
IAFLVGLVNPKTVQSMT [SWI3] | 2.56 ± 0.041
IANDNVITPHFITNVQS [SWI1] | 2.2 ± 0.053
IANFSRAGKYELVKSYS [YJR042W/NUP85] | 1.45 ± 0.06
IASKMSLAPEADLDSLI [RPT3] | 3.07 ± 0.19
ICSCVNRGVKLEIVYGY [RPP1] | 2 ± 0.049
IDALGTEFSKNDLEVGV [SCL1] | 2.65 ± 0.08
IDDFTTRLWGSVYYHKG [SNU114] | 3.31 ± 0.13
IDDKGVLMERKDERGEG [ITC1] | 3.02 ± 0.21
IDDLIHEIITVGPHFKQ [RPL7A] | 1.56 ± 0.064
IDEVDSIATKRFDAQTG [RPT3] | 3.38 ± 0.1
IDGPKAGVPRQAINLGQ [RPL14A] | 3.31 ± 0.1
IDGSTSHEERIEAIDEY [ISW2] | 3.32 ± 0.047
IDMESDVEDDDKETQLK [POP7] | 1.98 ± 0.031
IDNGTGRTGNGNMGITT [MED6] | 3.31 ± 0.043
IDNLESYAGISTDKLVQ [SIR2] | 3.08 ± 0.044
IDSPELLSLISTTAALQ [RPN7] | 2.45 ± 0.032
IDTDLFGAPNNPNSTAI [YGL172W/NUP49] | 2.59 ± 0.053
IDTLLYLMTYPQQPMVK [RET1] | 1.53 ± 0.056
IDVLLEQTTGGNNKDLK [RPB4] | 3.5 ± 0.079

Sequence | protein stability index
IDYHKTAKETKMLMNLH [RPN11] | 2.58 ± 0.055
IEATDLGNIASSFYINH [BRR2] | 3.3 ± 0.072
IEDLWQFLYEKHYKNIP [RPC82] | 2.1 ± 0.071
IEIDYTVRVDKASTYGE [SNF12] | 1.39 ± 0.04
IELDQVLNMLYWVPDWD [RPO21] | 2.51 ± 0.057
IELLSLDDDSIVNHEQD [SRB4] | 3.12 ± 0.088
IELVVTEKEEAVAKAAE [RPL17A] | 3.25 ± 0.047
IEQGIPKHSYLSGNPLT [SIR4] | 2.96 ± 0.061
IFEAISLSDELNLDEIV [YJL039C/NUP192] | 2.87 ± 0.054
IFEKELMYQIKKECALL [SRB4] | 3.44 ± 0.19
IFISSDHEFVLISLIMT [YMR129W/POM152] | 1.61 ± 0.29
IFKDKEKLVSDLRLIKV [SMC1] | 3.44 ± 0.15
IFNDILAHVDQIVDIRN [YJL039C/NUP192] | 2.9 ± 0.076
IFNFDQLVEITEQIKMR [SRB8] | 1.48 ± 0.057
IFSLLTGYPDEPPAGVA [CYT1] | 2.54 ± 0.09
IGIDPPRGVLLYGPPGT [RPT3] | 2.74 ± 0.073
IGQLMAFDKHMNLVLNE [SMB1] | 2.57 ± 0.051
IGSGAMSPLECRNILGV [RPP1] | 2.38 ± 0.034
IGTGEHIHDLEKFSPKS [SRP54] | 2.03 ± 0.042
IGTHHAGLTRSDRSLSE [BRR2] | 2.62 ± 0.07
IGVRCYEAYPNTSLPPS [FAS1] | 2.54 ± 0.028
IHIDALELAGMDALYEK [SIR3] | 2.93 ± 0.079
IHKQIVIEMKRCFENLQ [UBP6] | 2.87 ± 0.1
IHPIPSVTVSQGNYVTE [YMR129W/POM152] | 2.43 ± 0.043
IHQILLPTNPTLDKPNA [CSE2] | 2.42 ± 0.034
IIDGPKALILAPTRELV [PRP28] | 1.68 ± 0.052

Sequence | protein stability index
IIDVGTHHTDIIPIVDY [ARP9] | 2.59 ± 0.036
IIHVLTTMFENTGWSCS [RGR1] | 2.73 ± 0.044
IIKANQLILSDVDPEFY [RET1] | 1.96 ± 0.081
IIKERALLSKVKWVHMI [SNF2] | 1.18 ± 0.042
IILHFANFGEILEDFRV [YMR153W/NUP53] | 2.85 ± 0.16
IIPIVDYAQLDHLVSSI [ARP9] | 2.38 ± 0.039
IIQGRKNFDMLNSMEKD [PCI8] | 2.71 ± 0.047
IIQNAQRDAVTLFCCLL [RPO21] | 2.44 ± 0.046
IIRLLPINLENNDGSYG [SRB8] | 1.39 ± 0.048
IIVAGYDDKNKGEVYTI [PRE3] | 3.45 ± 0.098
IIVQYLTKFRQKLMQLV [RGR1] | 2.46 ± 0.1
IKEDIKKQPSILVGGTL [SNF2] | 3.27 ± 0.14
IKEELTKLIISGQLNFE [PCI8] | 2.99 ± 0.088
IKFGGLIIQKIPSLQNN [ECM29] | 1.83 ± 0.062
IKFKKCDGDTVWDKFAV [SSN2] | 2.75 ± 0.046
IKLNGSTLLCTDLESKS [SNU114] | 2.82 ± 0.063
IKMQRQFSQLNDPNAAV [MED6] | 3.16 ± 0.059
IKNVIVSNRVAAPARAG [RPP0] | 1.96 ± 0.22
IKQDIPIVIIFRALGII [RPB2] | 1.49 ± 0.039
IKQTSDESTIKRIKPNT [ECM29] | 2.94 ± 0.059
IKTFFTQKDSARVSPRN [YAR002W/NUP60] | 3.02 ± 0.064
IKTKQMSLKKCQEEVST [SMC2] | 3.27 ± 0.059
ILATNSLRILAKLSERS [YJL039C/NUP192] | 2.67 ± 0.053
ILDCVVTNSMRQTLAPY [YJR042W/NUP85] | 2.6 ± 0.048
ILEFITAAQVANVELTP [RPC34] | 1.53 ± 0.095
